First the molecules themselves.
B1: GLS3000 K50T (antibody, name in Kabat numbering, V domains shown)
VH: QVQLVESGGGVVQPGRSLRLSCAASGFTFSNAWMHWVRQAPGKGLEWVAQIKAKSNNYATYYAESVKGRFTISRDDSKNSLYLQMNSLKTEDTAVYYCRYVHYGAYYGVDAWGQGTTVTVSS
VL: DIVMTQSPLSLPVTPGEPASISCRSSQSLVHSNRNTYLHWYQQKPGQAPRLLIYTVSNRFSGVPDRFSGSGSGTDFTLKISRVEAEDVGVYYCGQGTQVPYTFGQGTKLEIK
notes: one-arm IgG as m2
B2: GLS3000 N28E (antibody, name in Kabat numbering, V domains shown)
VH: B1 VH
VL: B1 VL with N33E, T55K
notes: one-arm IgG as m2
B3: GLS3000 L27bS (antibody, name in Kabat numbering, V domains shown)
VH: B1 VH
VL: B1 VL with L29S, T55K
notes: one-arm IgG as m2
B4: GLS3000 N28D (antibody, name in Kabat numbering, V domains shown)
VH: B1 VH
VL: B1 VL with N33D, T55K
notes: one-arm IgG as m2
B5: GLS3000 L33I (antibody, name in Kabat numbering, V domains shown)
VH: B1 VH
VL: B1 VL with L38I, T55K
notes: one-arm IgG as m2
B6: GLS3000 L33V (antibody, name in Kabat numbering, V domains shown)
VH: B1 VH
VL: B1 VL with L38V, T55K
notes: one-arm IgG as m2
B7: GLS3000 N28M (antibody, name in Kabat numbering, V domains shown)
VH: B1 VH
VL: B1 VL with N33M, T55K
notes: one-arm IgG as m2
B8: GLS3000 L33A (antibody, name in Kabat numbering, V domains shown)
VH: B1 VH
VL: B1 VL with L38A, T55K
notes: one-arm IgG as m2
B9: GLS3000 L27bE (antibody, name in Kabat numbering, V domains shown)
VH: B1 VH
VL: B1 VL with L29E, T55K
notes: one-arm IgG as m2
B10: GLS3000 N28T (antibody, name in Kabat numbering, V domains shown)
VH: B1 VH
VL: B1 VL with N33T, T55K
notes: one-arm IgG as m2
B11: GLS3000 L27bM (antibody, name in Kabat numbering, V domains shown)
VH: B1 VH
VL: B1 VL with L29M, T55K
notes: one-arm IgG as m2
B12: GLS3000 N28I (antibody, name in Kabat numbering, V domains shown)
VH: B1 VH
VL: B1 VL with N33I, T55K
notes: one-arm IgG as m2
B13: GLS3000 L27bF (antibody, name in Kabat numbering, V domains shown)
VH: B1 VH
VL: B1 VL with L29F, T55K
notes: one-arm IgG as m2
B14: GLS3000 N28W (antibody, name in Kabat numbering, V domains shown)
VH: B1 VH
VL: B1 VL with N33W, T55K
notes: one-arm IgG as m2
B15: GLS3000 N30D (antibody, name in Kabat numbering, V domains shown)
VH: B1 VH
VL: B1 VL with N35D, T55K
notes: one-arm IgG as m2
B16: GLS3000 L27bV (antibody, name in Kabat numbering, V domains shown)
VH: B1 VH
VL: B1 VL with L29V, T55K
notes: one-arm IgG as m2
B17: GLS3000 N28P (antibody, name in Kabat numbering, V domains shown)
VH: B1 VH
VL: B1 VL with N33P, T55K
notes: one-arm IgG as m2
B18: GLS3000 N28S (antibody, name in Kabat numbering, V domains shown)
VH: B1 VH
VL: B1 VL with N33S, T55K
notes: one-arm IgG as m2
B19: GLS3000 K74T (antibody, name in Kabat numbering, V domains shown)
VH: B1 VH
VL: B1 VL with T55K, K79T
notes: one-arm IgG as m2
B20: GLS3000 L27bP (antibody, name in Kabat numbering, V domains shown)
VH: B1 VH
VL: B1 VL with L29P, T55K
notes: one-arm IgG as m2
B21: GLS3000 N28Q (antibody, name in Kabat numbering, V domains shown)
VH: B1 VH
VL: B1 VL with N33Q, T55K
notes: one-arm IgG as m2
B22: GLS3000 L27bY (antibody, name in Kabat numbering, V domains shown)
VH: B1 VH
VL: B1 VL with L29Y, T55K
notes: one-arm IgG as m2
B23: GLS3000 K50Y (antibody, name in Kabat numbering, V domains shown)
VH: B1 VH
VL: B1 VL with T55Y
notes: one-arm IgG as m2
B24: GLS3000 N28G (antibody, name in Kabat numbering, V domains shown)
VH: B1 VH
VL: B1 VL with N33G, T55K
notes: one-arm IgG as m2
B25: GLS3000 L33E (antibody, name in Kabat numbering, V domains shown)
VH: B1 VH
VL: B1 VL with L38E, T55K
notes: one-arm IgG as m2
B26: GLS3000 L33P (antibody, name in Kabat numbering, V domains shown)
VH: B1 VH
VL: B1 VL with L38P, T55K
notes: one-arm IgG as m2
B27: GLS3000 N28F (antibody, name in Kabat numbering, V domains shown)
VH: B1 VH
VL: B1 VL with N33F, T55K
notes: one-arm IgG as m2
B28: GLS3000 L33M (antibody, name in Kabat numbering, V domains shown)
VH: B1 VH
VL: B1 VL with L38M, T55K
notes: one-arm IgG as m2
B29: GLS3000 L27bD (antibody, name in Kabat numbering, V domains shown)
VH: B1 VH
VL: B1 VL with L29D, T55K
notes: one-arm IgG as m2
B30: GLS3000 N28V (antibody, name in Kabat numbering, V domains shown)
VH: B1 VH
VL: B1 VL with N33V, T55K
notes: one-arm IgG as m2
B31: GLS3000 K107E (antibody, name in Kabat numbering, V domains shown)
VH: B1 VH
VL: B1 VL with T55K, K112E
notes: one-arm IgG as m2
B32: GLS3000 L33D (antibody, name in Kabat numbering, V domains shown)
VH: B1 VH
VL: B1 VL with L38D, T55K
notes: one-arm IgG as m2
B33: GLS3000 N30E (antibody, name in Kabat numbering, V domains shown)
VH: B1 VH
VL: B1 VL with N35E, T55K
notes: one-arm IgG as m2
B34: GLS3000 N30F (antibody, name in Kabat numbering, V domains shown)
VH: B1 VH
VL: B1 VL with N35F, T55K
notes: one-arm IgG as m2
B35: GLS3000 N28L (antibody, name in Kabat numbering, V domains shown)
VH: B1 VH
VL: B1 VL with N33L, T55K
notes: one-arm IgG as m2
B36: GLS3000 N28H (antibody, name in Kabat numbering, V domains shown)
VH: B1 VH
VL: B1 VL with N33H, T55K
notes: one-arm IgG as m2
B37: GLS3000 N28Y (antibody, name in Kabat numbering, V domains shown)
VH: B1 VH
VL: B1 VL with N33Y, T55K
notes: one-arm IgG as m2
B38: GLS3000 L33F (antibody, name in Kabat numbering, V domains shown)
VH: B1 VH
VL: B1 VL with L38F, T55K
notes: one-arm IgG as m2
B39: GLS3000 N28K (antibody, name in Kabat numbering, V domains shown)
VH: B1 VH
VL: B1 VL with N33K, T55K
notes: one-arm IgG as m2
B40: GLS3000 L27bI (antibody, name in Kabat numbering, V domains shown)
VH: B1 VH
VL: B1 VL with L29I, T55K
notes: one-arm IgG as m2
B41: GLS3000 N28A (antibody, name in Kabat numbering, V domains shown)
VH: B1 VH
VL: B1 VL with N33A, T55K
notes: one-arm IgG as m2
B42: GLS3000 L27bW (antibody, name in Kabat numbering, V domains shown)
VH: B1 VH
VL: B1 VL with L29W, T55K
notes: one-arm IgG as m2
B43: GLS3000 N30A (antibody, name in Kabat numbering, V domains shown)
VH: B1 VH
VL: B1 VL with N35A, T55K
notes: one-arm IgG as m2

Changes are numbered by the printed parent chain.

T1 sequence (P07766 23-126): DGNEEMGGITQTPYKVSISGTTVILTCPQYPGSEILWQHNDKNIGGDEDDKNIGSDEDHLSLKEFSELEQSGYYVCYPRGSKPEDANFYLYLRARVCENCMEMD

This assay has as its target T1, CD3 epsilon homodimer protein (UniProt P07766 23-126).
T1 construct: also called CD3 (CD3 epsilon)
Description: SPR Biacore T200, CD3e homodimer on chip, vs unaltered GLS3000 antibody.
Description: An appropriate amount of CD3 epsilon homodimer protein was immobilized onto Sensor chip CM4 (GE Healthcare Japan Corp.) by the amine coupling method. Then, the antibody having an appropriate concentration was injected thereto as an analyte and allowed to interact with the CD3 epsilon homodimer protein on the sensor chip. Then, the sensor chip was regenerated by the injection of 10 mmol/L glycine-HCl (pH 1.5). The assay was conducted at 25 degrees C., and HBS-EP+(GE Healthcare Japan Corp.) was used as a running buffer. […] Each parameter was calculated using Biacore T200 Evaluation Software (GE Healthcare Japan Corp.).
In the case of B1, the “ratio of amounts bound (Z=Y/X)” value was determined as 0.19.

For B2, the “ratio of amounts bound (Z=Y/X)” value came out at 0.4.

As for B3, the “ratio of amounts bound (Z=Y/X)” value was found to be 0.71.

Take B4: the “ratio of amounts bound (Z=Y/X)” value is 0.19.

Take B5: the “ratio of amounts bound (Z=Y/X)” value came out at 0.83.

As for B6, the “ratio of amounts bound (Z=Y/X)” value turned out to be 1.05.

B7: the “ratio of amounts bound (Z=Y/X)” value is 0.39.

In the case of B8, the “ratio of amounts bound (Z=Y/X)” value amounted to 0.85.

Regarding B9, the “ratio of amounts bound (Z=Y/X)” value is 0.17.

As to B10, the “ratio of amounts bound (Z=Y/X)” value is 0.45.

On to B11, for which the “ratio of amounts bound (Z=Y/X)” value was found to be 0.71.

As to B12, the “ratio of amounts bound (Z=Y/X)” value amounted to 0.44.

Consider B13, for which the “ratio of amounts bound (Z=Y/X)” value is 0.42.

In the case of B14, the “ratio of amounts bound (Z=Y/X)” value is 0.41.

Take B15: the “ratio of amounts bound (Z=Y/X)” value was determined as 0.34.

With B16, the “ratio of amounts bound (Z=Y/X)” value was determined as 1.12.

As to B17, the “ratio of amounts bound (Z=Y/X)” value was 0.36.

B18: the “ratio of amounts bound (Z=Y/X)” value stood at 0.32.

In the case of B19, the “ratio of amounts bound (Z=Y/X)” value is 0.84.

For the molecule B20, the “ratio of amounts bound (Z=Y/X)” value came out at 0.91.

Take B21: the “ratio of amounts bound (Z=Y/X)” value was 0.37.

B22: the “ratio of amounts bound (Z=Y/X)” value was 0.25.

Take B23: the “ratio of amounts bound (Z=Y/X)” value was 0.24.

As for B24, the “ratio of amounts bound (Z=Y/X)” value was found to be 0.46.

For B25, the “ratio of amounts bound (Z=Y/X)” value worked out at 0.72.

B26: the “ratio of amounts bound (Z=Y/X)” value came out at 0.3.

On to B27, for which the “ratio of amounts bound (Z=Y/X)” value is 0.46.

As to B28, the “ratio of amounts bound (Z=Y/X)” value came to 0.93.

Regarding B29, the “ratio of amounts bound (Z=Y/X)” value was determined as 0.17.

Regarding B30, the “ratio of amounts bound (Z=Y/X)” value turned out to be 0.36.

For B31, the “ratio of amounts bound (Z=Y/X)” value is 0.94.

For B32, the “ratio of amounts bound (Z=Y/X)” value came to 0.17.

On to B33, for which the “ratio of amounts bound (Z=Y/X)” value was determined as 0.44.

B34: the “ratio of amounts bound (Z=Y/X)” value was found to be 1.1.

B35: the “ratio of amounts bound (Z=Y/X)” value was determined as 0.39.

For B36, the “ratio of amounts bound (Z=Y/X)” value came out at 0.42.

Turning to B37, the “ratio of amounts bound (Z=Y/X)” value stood at 0.26.

Turning to B38, the “ratio of amounts bound (Z=Y/X)” value came to 0.78.

Regarding B39, the “ratio of amounts bound (Z=Y/X)” value was 0.44.

Consider B40, for which the “ratio of amounts bound (Z=Y/X)” value came out at 1.19.

Regarding B41, the “ratio of amounts bound (Z=Y/X)” value is 0.25.

Regarding B42, the “ratio of amounts bound (Z=Y/X)” value is 0.26.

On to B43, for which the “ratio of amounts bound (Z=Y/X)” value is 0.5.

The values are drawn from US20210388087A1 (Chugai, published 2021).
